In the supplement of paper PMC10567573:
± gives the standard deviation.

Assay: protein stability index of a GFP-peptide fusion (GPS, HEK-293T) (PSI 1-6); higher = more stable
Details: c terminus: a fixed tail appended
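Note: 24-mer peptide tiles fused after GFP, lentivirally expressed, FACS-sorted into six equal bins by GFP/DsRed ratio, decoded by Illumina sequencing, PSI is the read-weighted mean bin number.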

Sequence	protein stability index (treatment: DMSO)	protein stability index (treatment: MLN4924 1 uM, 8 h)
DLSGLPLQSSKNSYSFQNPSSFDP [RNF180]	3.75 ± 0.065	3.78 ± 0.074
DLSVEERSFVEKHRWPSNMYLKQL [RHOBTB3]	3.01 ± 0.24	2.98 ± 0.18
DLTVGRAPTADDDDDDHDDHEDND [NOL4L]	5.56 ± 0.18	5.5 ± 0.15
DNLLRSTQKLSHSTKPSGSPLEEK [MATN2]	5.31 ± 0.37	5.07 ± 0.37
DNMYRLAHFSPFLYYQSQELPNGS [PDZK1]	2.12 ± 0.22	2.33 ± 0.23
DNPANRSLVLPWSFPLEWAPQNLT [TOR1AIP2]	2.87 ± 0.23	2.79 ± 0.17
DPKKLLTQHFVQENYLEYRQVPGS [MAGEA3]	3.62 ± 0.22	3.76 ± 0.13
DREDSPERCSDSDEEKKARRGRSP [CLINT1]	5.59 ± 0.3	5.34 ± 0.25
DREGPSSSKLVTKKAPQPAKPRLA [HDAC6]	5.09 ± 0.3	5.06 ± 0.35
DRTSHRLHTANLGDSGFLVVRGGE [PPTC7]	4.08 ± 0.21	4.11 ± 0.27
DSASPVEDTSNDESSILGTDIDLQ [M1AP]	5.62 ± 0.2	5.62 ± 0.21
DSEEDEKMEEDIKEEEEKDHNEAM [PCMTD1]	5.81 ± 0.082	5.64 ± 0.2
DSEHEPVYRAELVGELNGYLRDSS [PWWP2B]	4.46 ± 0.14	4.45 ± 0.16
DSHYGTKGLKKVVHETPAASKTVF [BTBD1]	4.05 ± 0.095	4.14 ± 0.28
DSKIAFLMQLQDIQYLTENIWASQ [IQUB]	2.9 ± 0.64	2.46 ± 0.62
DSNMPHFQTLQAIVSHFQKLFDVP [CEP70]	2.38 ± 0.1	2.47 ± 0.22
DSSHERTESQLTPCIRNVTSPTRQ [BTBD10]	5.06 ± 0.15	5.1 ± 0.12
DVESGQLLQSFHGHGADVLCLDLA [GNB5]	3.69 ± 0.28	3.81 ± 0.31

Sequence	protein stability index (treatment: DMSO)	protein stability index (treatment: MLN4924 1 uM, 8 h)
DVIIEVNGVNVLDEPYEKVVDRIQ [PDZK1]	3.73 ± 0.32	3.81 ± 0.97
DVSSTEEFLELSPQKLKEVISLEK [GAN]	4.88 ± 0.18	4.87 ± 0.16
DYEFRVVAVNNIGRGPPSEPVLTQ [PTPRD]	3.08 ± 0.16	3.04 ± 0.47
DYSPYYKTIEELRDKILTATIENN [KRT13]	3.17 ± 0.15	3.11 ± 0.16
DYVDRGYYSVETVTLLVALKVRYR [PPP2CA]	2.74 ± 0.46	2.47 ± 0.6
EAAEPPKTPPSSCDSTNAAIAKQA [KMT5A]	5.42 ± 0.29	5.34 ± 0.13
EAAKQMRSRGKVLKTKDGKLPFCA [CPOX]	3.89 ± 0.4	3.68 ± 0.23
EALCEEDLLLWIQKHTEVETVDLV [DENND6A]	3.37 ± 0.25	3.08 ± 0.27
EASAEGPRAVFVLLEERRPADSAQ [TFE3]	3.93 ± 0.28	3.95 ± 0.44
EASGYVDRDMFFKICESLNVPVDD [EFHC1]	3.95 ± 0.29	4.17 ± 0.44
ECMLLVFGIDVKEVDPTGHSFVLV [MAGEA10]	2.82 ± 0.44	2.8 ± 0.66
ECVVAMHQAQLISKIPHILKEMYD [EIF5]	2.78 ± 0.38	2.32 ± 0.5
EDLTAKRKRMKMDKTCSKTKNKSK [FAM9B]	4.98 ± 0.43	5.16 ± 0.34
EDSCAELGESKEHMESRMVTETEE [SDE2]	5.7 ± 0.18	5.63 ± 0.3
EDSSRDIREALHELLCCTNVSTKE [INTS4]	3.75 ± 0.31	3.98 ± 0.25
EDTTEEAQRRRMDEISDHAKVLTL [EIF5]	5.24 ± 0.11	5.18 ± 0.2
EEAKGLLDKVKDGGYRPAEDKIFP [ZBED1]	4.84 ± 0.3	4.78 ± 0.41
EEAVILLEDLERELDEPQHEMVAH [ZSCAN9]	4.14 ± 0.6	4.2 ± 0.34
